The test addresses T1, CD20 (human) (UniProt P11836).
T1 sequence (looked up): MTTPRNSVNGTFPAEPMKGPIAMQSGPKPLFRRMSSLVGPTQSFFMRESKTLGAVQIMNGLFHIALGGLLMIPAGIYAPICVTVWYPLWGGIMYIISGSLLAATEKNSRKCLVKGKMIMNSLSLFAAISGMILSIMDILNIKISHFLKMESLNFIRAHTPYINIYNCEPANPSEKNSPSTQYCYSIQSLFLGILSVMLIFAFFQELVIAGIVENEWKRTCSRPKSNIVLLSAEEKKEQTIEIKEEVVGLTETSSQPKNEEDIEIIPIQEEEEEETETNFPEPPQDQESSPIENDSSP
Nature of the test: competition, flow cytometry on Ramos B cells; competitor PE-labeled monoclonal anti-CD20 antibody 3 ug/ml. For orientation: In flow cytometry, cells or beads pass a laser one at a time.

On to “CD20×CD37 bispecific scorpion (015×016) (bispecific antibody)”, for which the IC50 (read off the curve) turned out to be 4 nM.

Source of the values: patent US8409577.
